Data reported in patent publication US20250276075A1, “METHODS OF TREATING AXL-EXPRESSING CANCERS WITH ANTI-AXL ANTIBODIES, ANTIBODY FRAGMENTS AND THEIR IMMUNOCONJUGATES” (BIOATLA, INC., priority 2020, published 2025).
Residue numbers refer to the chain shown, from its start. Names may count otherwise.

T1: Axl (Homo sapiens, UniProt P30530)
T1 sequence (P30530 26-451 limits assumed): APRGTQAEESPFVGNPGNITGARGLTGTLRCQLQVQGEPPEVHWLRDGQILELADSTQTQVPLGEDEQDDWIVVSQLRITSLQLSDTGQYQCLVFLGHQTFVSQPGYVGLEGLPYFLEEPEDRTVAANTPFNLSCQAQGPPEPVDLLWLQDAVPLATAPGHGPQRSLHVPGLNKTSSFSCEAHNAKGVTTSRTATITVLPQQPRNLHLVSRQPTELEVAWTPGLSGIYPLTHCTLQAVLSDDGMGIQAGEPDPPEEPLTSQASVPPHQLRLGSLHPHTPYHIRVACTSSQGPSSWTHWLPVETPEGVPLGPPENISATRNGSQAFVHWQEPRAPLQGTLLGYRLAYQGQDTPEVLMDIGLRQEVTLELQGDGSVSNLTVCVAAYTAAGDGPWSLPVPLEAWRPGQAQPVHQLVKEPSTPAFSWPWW

B1: HC-S059I (antibody, V domains shown)
VH: EVQLVQSGAEVKKPGATVKISCKVSGYSFTGHTMNWIRQPPGKGLEWIGLIKPSNGGTIYNQKFKGRVTISADKSISTAYLQWSSLKASDTAMYYCAHGHYESYFAMDYWGQGTLVTVSS
VL: DIQMTQSPSSLSASVGDRVTITCKASQDVSSAVAWYQQKPGQAPRLLIYWASTRHTGVPSRFSGSGSGTEFTLTISSLQPDDFATYYCQEHFSTPLTFGQGTKVEIK
B2: HC-S103D (antibody, V domains shown)
VH: B1 VH with I59S, S103D
VL: B1 VL
B3: HC-E102V (antibody, V domains shown)
VH: B1 VH with I59S, E102V
VL: B1 VL
B4: LC-P095W (antibody, V domains shown)
VH: B1 VH with I59S
VL: B1 VL with P95W
B5: LC-L096G (antibody, V domains shown)
VH: B1 VH with I59S
VL: B1 VL with L96G
B6: HC-S059T (antibody, V domains shown)
VH: B1 VH with I59T
VL: B1 VL
B7: HC-S103N (antibody, V domains shown)
VH: B1 VH with I59S, S103N
VL: B1 VL
B8: HC-E102L (antibody, V domains shown)
VH: B1 VH with I59S, E102L
VL: B1 VL
B9: LC-P095V (antibody, V domains shown)
VH: B1 VH with I59S
VL: B1 VL with P95V
B10: LC-P095S (antibody, V domains shown)
VH: B1 VH with I59S
VL: B1 VL with P95S
B11: HC-S103M (antibody, V domains shown)
VH: B1 VH with I59S, S103M
VL: B1 VL
B12: HC-H100E (antibody, V domains shown)
VH: B1 VH with I59S, H100E
VL: B1 VL
B13: LC-T097I (antibody, V domains shown)
VH: B1 VH with I59S
VL: B1 VL with T97I
B14: LC-P095T (antibody, V domains shown)
VH: B1 VH with I59S
VL: B1 VL with P95T
B15: HC-H100W (antibody, V domains shown)
VH: B1 VH with I59S, H100W
VL: B1 VL
B16: LC-L096R (antibody, V domains shown)
VH: B1 VH with I59S
VL: B1 VL with L96R
B17: HC-H100R (antibody, V domains shown)
VH: B1 VH with I59S, H100R
VL: B1 VL
B18: HC-H100D (antibody, V domains shown)
VH: B1 VH with I59S, H100D
VL: B1 VL
B19: HC-E102Y (antibody, V domains shown)
VH: B1 VH with I59S, E102Y
VL: B1 VL

target: Axl (UniProt P30530); test: ELISA, 1:3 dilution; conditions: not given

Point of comparison: B12, Affinity ELISA CPE mutant ratio (1:3, pH 6.0/7.4) 2.77. Against it:
- B1 — higher, 30.5
- B2 — higher, 4.24
- B3 — lower, 1.93
- B4 — lower, 2.15
- B5 — lower, 2.17
- B6 — lower, 1.02
- B7 — lower, 1.07
- B8 — higher, 3.27
- B9 — lower, 1.87
- B10 — higher, 2.84
- B11 — lower, 1.78
- B13 — higher, 3.09
- B14 — lower, 2.5
- B15 — higher, 4.94
- B16 — higher, 2.88
- B17 — lower, 1.88
- B18 — lower, 2.42
- B19 — lower, 2.61

target: Axl (UniProt P30530); test: ELISA, 1:9 dilution; conditions: not given

Point of comparison: B7, Affinity ELISA CPE mutant ratio (1:9, pH 6.0/7.4) 3.18. Against it:
- B1 — lower, 2.06
- B2 — lower, 2.23
- B3 — lower, 2.51
- B4 — lower, 2.26
- B5 — lower, 2.44
- B6 — lower, 1.93
- B8 — lower, 2.7
- B9 — lower, 2.13
- B10 — higher, 3.51
- B11 — lower, 1.81
- B12 — higher, 3.62
- B13 — higher, 4.05
- B14 — lower, 2.09
- B15 — higher, 5.91
- B16 — lower, 2.18
- B17 — lower, 2.51
- B18 — lower, 3.09
- B19 — lower, 1.99

target: T1, Axl; test: Affinity ELISA of CPE mutant antibodies for binding to Axl at pH 6.0 over pH 7.4; conditions: heavy chain variable region mutants; 1:3 dilution
Description: The DNA encoding the wild-type antibody was evolved to generate a mutant antibody library using Comprehensive Positional Evolution (CPE), which each position in the template antibody is randomized one at a time. Each mutant antibody in the library has only one single point mutation. The mutant antibodies in the library were generated by simultaneously screening for selective binding affinity to Axl at pH 6.0 over pH 7.4 by ELISA. Two mutant antibody dilutions were used: 1:3 and 1:9 dilutions. The mutant antibodies that have at least 1.5 ratio of binding affinity at pH 6.0 to at pH 7.4 under either 1:3 or 1:9 dilution are selected as conditionally active antibodies, with the single point mutations indicated in each of the heavy chain and light chain variable region (Tables 1 and 2).
A wild-type antibody to Axl was selected as the template antibody (with a heavy chain variable region of 063-hum10F10-HC in FIG. 1A and a light chain variable region of […]). The DNA encoding the wild-type antibody was evolved to generate a mutant antibody library using Comprehensive Positional Evolution (CPE), a method by which each position in the template antibody is randomized one at a time. Each mutant antibody in the library has only one single point mutation. The mutant antibodies in the library were generated by simultaneously screening for selective binding affinity to Axl at pH 6.0 over pH 7.4 as determined by ELISA.
Simultaneously, the expression level of the mutant antibodies was also optimized for the purpose of higher fields in a manufacturing process. The screening was done in serum using a FLAG tag because there were human antibodies in the serum which might cause false positives for the screening. The screening buffer was a carbonate buffer (Krebs buffer with ringer-standard buffer but different from PBS). […] Some of the selected mutant antibodies (scFv) were represented in FIG. 2 with their higher activity at pH 6.0 than at pH 7.4, while their activity ratios between pH 6.0 to pH 7.4 were at least 11 fold (FIG. 3).

Point of comparison: B8, “Affinity ELISA CPE mutant ratio (1:3, pH 6.0/7.4)” value 3.266. Against it:
- B1 — higher, 30.492
- B2 — higher, 4.237
- B3 — lower, 1.931
- B6 — lower, 1.021
- B7 — lower, 1.075
- B11 — lower, 1.784
- B12 — lower, 2.775
- B15 — higher, 4.937
- B17 — lower, 1.877
- B18 — lower, 2.416
- B19 — lower, 2.610

same assay, conditions: heavy chain variable region mutants; 1:9 dilution

Point of comparison: B8, “Affinity ELISA CPE mutant ratio (1:9, pH 6.0/7.4)” value 2.698. Against it:
- B1 — lower, 2.055
- B2 — lower, 2.230
- B3 — lower, 2.507
- B6 — lower, 1.926
- B7 — higher, 3.179
- B11 — lower, 1.806
- B12 — higher, 3.623
- B15 — higher, 5.908
- B17 — lower, 2.507
- B18 — higher, 3.094
- B19 — lower, 1.990

same assay, conditions: light chain variable region mutants; 1:3 dilution

Point of comparison: B10, “Affinity ELISA CPE mutant ratio (1:3, pH 6.0/7.4)” value 2.841. Against it:
- B4 — lower, 2.148
- B5 — lower, 2.165
- B9 — lower, 1.871
- B13 — higher, 3.086
- B14 — lower, 2.497
- B16 — higher, 2.876

same assay, conditions: light chain variable region mutants; 1:9 dilution

Point of comparison: B16, “Affinity ELISA CPE mutant ratio (1:9, pH 6.0/7.4)” value 2.176. Against it:
- B4 — higher, 2.263
- B5 — higher, 2.436
- B9 — lower, 2.132
- B10 — higher, 3.512
- B13 — higher, 4.049
- B14 — lower, 2.086
